Changes are numbered by the printed parent chain.
B1: M1-L-A1-3-1C3 (hz1E11-3), periplasmic extract (antibody, V domains shown)
VH: EVQLVESGGGLVQPGGSLRLSCAASGFTFSSYTMSWVRQAPGKGLEWVAYISNGGGSTYYPDTVKGRFTISRDNAKNSLYLQMNSLRAEDTAVYYCARHLGGTASFDYWGQGTLVTVSS
VL: DIQMTQSPSSLSASVGDRVTITCLASQTIGTWLAWYQQKPGKAPKLLIYVATSLADGVPSRFSGSGSGTDFTLTISSLQPEDFATYYCDQMYSTPWTFGQGTKVEIK
notes: Library clone expressed in bacteria with IPTG, tested as periplasmic extract; LCDR3 DQMYSTPWT
B2: M1-LH-A3-3-1A6 (antibody, name in Kabat numbering, V domains shown)
VH: B1 VH with H99N, L100Y
VL: B1 VL with D89Q, M91L, Y92V, S93R
notes: hz1E11 library clone, periplasmic extract
B3: M3-L-A1-3-1A12 (hz1E11-133), periplasmic extract (antibody, V domains shown)
VH: B1 VH
VL: B1 VL with D89Q, M91N, Y92A, S93Y, T94A
notes: Library clone expressed in bacteria with IPTG, tested as periplasmic extract; LCDR3 QQNAYAPWT
B4: M3-L-A1-3-1F11 (hz1E11-154), periplasmic extract (antibody, V domains shown)
VH: B1 VH
VL: B1 VL with D89Q, M91T, Y92A, S93F, T94S
notes: Library clone expressed in bacteria with IPTG, tested as periplasmic extract; LCDR3 QQTAFSPWT
B5: M3-L-A1-3-2C2 (antibody, V domains shown)
VH: B1 VH
VL: B1 VL with D89Q, M91L, Y92G, S93F, T94I
notes: as for B2
B6: M3-L-A3-4-2E8 (antibody, V domains shown)
VH: B1 VH
VL: B1 VL with D89Q, M91I, Y92A, S93Y, T94V
notes: as for B2
B7: M3-LH-A1-1-1H1 (antibody, name in Kabat numbering, V domains shown)
VH: B1 VH with H99N, L100Y
VL: B1 VL with D89Q, M91N, Y92F, S93I, T94A
notes: as for B2
B8: M3-LH-A1-2-2F4 (antibody, name in Kabat numbering, V domains shown)
VH: B1 VH with H99N
VL: B1 VL with D89Q, M91L, Y92V, S93R, T94I
notes: as for B2
B9: M3-LH-A3-3-2A5 (antibody, name in Kabat numbering, V domains shown)
VH: B1 VH with L100W
VL: B1 VL with D89Q, Y92F
notes: as for B2
B10: M3-LH-A3-3-2F1 (antibody, V domains shown)
VH: B1 VH
VL: B1 VL with D89Q, M91N, Y92A, S93Y, T94N
notes: as for B2
B11: hz1E11 CDR-H3 H95A (antibody, name in Kabat numbering, V domains shown)
VH: B1 VH with H99A
VL: B1 VL with D89Q, M91L
notes: Alanine scanning variant, expressed in bacteria, periplasmic extract
B12: hz1E11 CDR-H3 L96A (antibody, name in Kabat numbering, V domains shown)
VH: B1 VH with L100A
VL: B1 VL with D89Q, M91L
notes: as for B11
B13: hz1E11 CDR-H3 S100aA (antibody, name in Kabat numbering, V domains shown)
VH: B1 VH with S105A
VL: B1 VL with D89Q, M91L
notes: as for B11
B14: hz1E11 CDR-H3 T99A (antibody, name in Kabat numbering, V domains shown)
VH: B1 VH with T103A
VL: B1 VL with D89Q, M91L
notes: as for B11
B15: hz1E11 CDR-L3 L91A (antibody, V domains shown)
VH: B1 VH
VL: B1 VL with D89Q, M91A
notes: as for B11
B16: hz1E11 CDR-L3 Q89A (antibody, V domains shown)
VH: B1 VH
VL: B1 VL with D89A, M91L
notes: as for B11
B17: hz1E11 CDR-L3 Q90A (antibody, V domains shown)
VH: B1 VH
VL: B1 VL with D89Q, Q90A, M91L
notes: as for B11
B18: hz1E11 CDR-L3 S93A (antibody, V domains shown)
VH: B1 VH
VL: B1 VL with D89Q, M91L, S93A
notes: as for B11
B19: hz1E11 CDR-L3 T94A (antibody, V domains shown)
VH: B1 VH
VL: B1 VL with D89Q, M91L, T94A
notes: as for B11
B20: hz1E11 CDR-L3 Y92A (antibody, V domains shown)
VH: B1 VH
VL: B1 VL with D89Q, M91L, Y92A
notes: as for B11
B21: hz1E11-3 (IgG) (antibody, V domains shown)
VH: B1 VH
VL: B1 VL
notes: heavy chain variable region the same as hz1E11
B22: hz1E11-133 (IgG) (antibody, V domains shown)
VH: B1 VH
VL: B1 VL with D89Q, M91N, Y92A, S93Y, T94A
notes: as for B21
B23: hz1E11-154 (IgG) (antibody, V domains shown)
VH: B1 VH
VL: B1 VL with D89Q, M91T, Y92A, S93F, T94S
notes: as for B21

What follows are binders tested against T1, HER2-ECD-His protein (human, UniProt P04626 23-652) (assay: SPR (Biacore 3000), HER2-ECD-His amine-coupled to CM5, periplasmic extract as analyte).
T1 construct: extracellular domain; not shown: His tag
Method: In order to select clones with improved Koff among the selected clones, the clones were analyzed via Biacore 3000 (GE Healthcare). The HER2-ECD-His protein was immobilized to a CM5 sensor chip via an amine coupling method using ECD/NHS. […] The Koff value for each antibody was analyzed via BIAevaluation software.
B1 was tested, and the “Degree of reduction (Fold) of koff against hz1E11” value (“Degree of reduction (Fold) of koff” for short) was 7.4 fold. With B2 the “Degree of reduction (Fold) of koff” value was 5.8 fold. In the case of B3, the “Degree of reduction (Fold) of koff” value is reported as 30.4 fold. With B4 the “Degree of reduction (Fold) of koff” value was 9.7 fold. For B5, the “Degree of reduction (Fold) of koff” value was 2 fold. With B6 the “Degree of reduction (Fold) of koff” value was 5.9 fold. For B7, the “Degree of reduction (Fold) of koff” value was 0.7 fold. In the case of B8, the “Degree of reduction (Fold) of koff” value is reported as 3.2 fold. With B9 the “Degree of reduction (Fold) of koff” value was 3.6 fold. With B10 the “Degree of reduction (Fold) of koff” value was 4.4 fold.

Each binder was assayed against T2, HER2-ECD (ELISA antigen of Examples 13 and 14) (human, UniProt P04626 23-652) (assay: ELISA, periplasmic extract on HER2-ECD).
T2 construct: extracellular domain
B11: binds. B12: binds. B13: binds. B14: binds. B15: binds. B16: binds. B17: binds. B18: binds. B19: binds. B20: binds.

These binders were tested against T1, HER2-ECD-His protein (assay: SPR, IgG captured by goat anti-human IgG on CM5, HER2-ECD-His analyte).
Method: The goat anti-human IgG (Invitrogen, #H10500) at a concentration of 2000 RU was immobilized to a CM5 sensor chip via ECD/NHS method. Then, the antibodies were allowed to bind at a rate of 50 μL/min for 5 minutes, and allowed the buffer to flow thereonto for 5 minutes for stabilization purpose. […] After analyzing each of the concentrations, they were recycled using 10 mM Glycine (pH 1.5) and performed the subsequent assays. The affinities of the antibodies were analyzed via BIAevaluation software.
A Kd of 5.2 nM, a koff of 0.0002 s⁻¹ and a kon of 38000 M⁻¹ s⁻¹ were found for B21 in this work. In the case of B22, the Kd is reported as 1.5 nM, the “fold decrease in Koff (kd) compared to hz1E11” value is reported as 8.4 fold and the “fold improvement of affinity compared to hz1E11” value is reported as 15 fold. For the same binder, the koff was 9.9e-05 s⁻¹ and the kon was 64000 M⁻¹ s⁻¹. B23 was tested, and the Kd was 1.1 nM, the “fold decrease in Koff (kd) compared to hz1E11” value was 8.4 fold and the “fold improvement of affinity compared to hz1E11” value was 20 fold. It also gave a koff of 9.9e-05 s⁻¹ and a kon of 86000 M⁻¹ s⁻¹.

Source: patent publication US20160053011A1 (ABCLON, published 2016)
